Patent US20250326796A1 (SHANGHAI UNIVERSITY, published 2025)

T1: STING (mouse, UniProt Q3TBT3 1-378)
T1 sequence (looked up): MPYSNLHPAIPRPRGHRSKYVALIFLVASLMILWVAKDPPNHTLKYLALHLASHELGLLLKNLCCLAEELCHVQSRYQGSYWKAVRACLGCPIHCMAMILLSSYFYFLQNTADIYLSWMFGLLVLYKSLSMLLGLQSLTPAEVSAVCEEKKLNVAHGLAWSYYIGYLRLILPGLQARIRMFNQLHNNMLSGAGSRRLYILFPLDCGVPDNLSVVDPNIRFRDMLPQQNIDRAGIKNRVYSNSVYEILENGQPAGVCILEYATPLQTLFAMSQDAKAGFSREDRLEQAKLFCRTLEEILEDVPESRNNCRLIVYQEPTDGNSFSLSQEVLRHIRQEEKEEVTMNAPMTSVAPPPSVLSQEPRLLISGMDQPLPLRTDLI


biological target: T1, STING; assay: cell-based or functional assay

Binder	IC50 for inhibiting Ifnb mRNA (RT-qPCR, RAW264.7 cells stimulated with 2'3'-cGAMP) [µM]
Ac-LAWSYYIGYLRL-NH2 [SIP-1]	8.6
NFNVAHGLAWSYYIGYLRLILPELQ (N-terminus acetylated (-Ac); C-terminus amidated (-NH2)) [SIP-7]	18.9
Ac-NFNVAHGLAWSYYIG-NH2 (not fully specified) [SIP-5]	28.5
Ac-NFNVAHGLAWSYYIGYLRLIL-NH2 (not fully specified) [SIP-6]	35.3

Other lines, results leading:

IC50 for inhibiting Ifnb mRNA (RT-qPCR, RAW264.7 cells stimulated with 2'3'-cGAMP) [µM]	Binder
66.3	NFNVAHGLAWSYYIGYLRLILPELQARIRTYNQHYNNLL (N-terminus acetylated (-Ac); C-terminus amidated (-NH2)) [SIP-10]
41.9	NFNVAHGLAWSYYIGYLRLILPELQARIRTYNQHYNNL (not fully specified; N-terminus acetylated (-Ac); C-terminus amidated (-NH2)) [SIP-9]
53.2	NFNVAHGLAWSYYIGYLRLILPELQARIRTYNQHYNNLLR (N-terminus acetylated (-Ac); C-terminus amidated (-NH2)) [SIP-11]
32.6	NFNVAHGLAWSYYIGYLRLILPELQARIRTYN (N-terminus acetylated (-Ac); C-terminus amidated (-NH2)) [SIP-8]
